Test results from the supplement of paper PMC12764529.
± gives the half width of the 95% confidence interval.

Assays:
[1] = folding stability dG unfold from trypsin proteolysis; higher = more stable
Summary of the method: (§1)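 Unfolding free energy was derived, per protease or combined, by relating Bayesian-fitted K50 values from sequencing counts to a sequence-predicted unfolded-state K50 and a shared folded-state K50. The underlying digests exposed cysteine-free mini-proteins under 80 residues, in a PA-tagged cDNA display construct, to trypsin and chymotrypsin at 11 threefold-diluted concentrations and to a no-protease condition. A filter kept only designs with AlphaFold2 dimer inter-PAE above 15.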

[2] = folding stability dG unfold from chymotrypsin proteolysis; higher = more stable
Summary of the method: as §1

[3] = folding stability dG unfold (combined trypsin and chymotrypsin); higher = more stable
Summary of the method: as §1

In the case of “SAGGSAGGSAGMGVPPDGATLRFTYPESPSSTRTFTSPEEAAAWIAANLPPEHSVSFSPASAGGSAGGSAGG [r11_983_JUSTAS]”, the “folding stability dG unfold” value [1] is reported as 0.25 ± 0.1 kcal/mol, the “folding stability dG unfold” value [2] is reported as 0.863 ± 0.12 kcal/mol and the “folding stability dG unfold” value [3] is reported as 0.684 ± 0.084 kcal/mol.
For “SAGGSAGGSAGMITIERIPGSGKLVITITDPGSGKVLTIPFDNADPKEALAKAKELLKKLSAGGSAGGSAGG [r17_386_JUSTAS]”, the “folding stability dG unfold” value [1] was 3.25 ± 0.071 kcal/mol, the “folding stability dG unfold” value [2] was 3.19 ± 0.048 kcal/mol and the “folding stability dG unfold” value [3] was 3.25 ± 0.075 kcal/mol.
In the case of “SAGGSAGGSAGMKEGEKPKVKIEIDVLIEVDGKLYRVRAEAEINEDGEITIKVEIEELPDSAGGSAGGSAGG [r11_551_TrROS_Hall]”, the “folding stability dG unfold” value [1] is reported as 2.4 ± 0.11 kcal/mol, the “folding stability dG unfold” value [2] is reported as 3.65 ± 0.11 kcal/mol and the “folding stability dG unfold” value [3] is reported as 3.3 ± 0.12 kcal/mol.
With “SAGGSAGGSAGMKELEITIIDKKTGKPLKVKVTLVEVDGKLYLVIEVYKNGKPLETYVLPSAGGSAGGSAGG [r11_631_TrROS_Hall]” the “folding stability dG unfold” value [1] was 2.29 ± 0.12 kcal/mol, the “folding stability dG unfold” value [2] was 3.2 ± 0.072 kcal/mol and the “folding stability dG unfold” value [3] was 3 ± 0.18 kcal/mol.
For “SAGGSAGGSAGMKIEKNKDGKLRIIIYNKNGKKVKEIEMSVEEAKKLAEKNNFEIVKIEPSAGGSAGGSAGG [r11_521_TrROS_Hall]”, the “folding stability dG unfold” value [1] was 1.02 ± 0.093 kcal/mol, the “folding stability dG unfold” value [2] was 0.966 ± 0.41 kcal/mol and the “folding stability dG unfold” value [3] was 1.09 ± 0.21 kcal/mol.
With “SAGGSAGGSAGMKIRIELPGMSPEQIEELAKLIPNVRVSITYDKETNRVYVEIEVSEEDLSAGGSAGGSAGG [r11_862_TrROS_Hall]” the “folding stability dG unfold” value [1] was 2.38 ± 0.058 kcal/mol, the “folding stability dG unfold” value [2] was 3.21 ± 0.052 kcal/mol and the “folding stability dG unfold” value [3] was 2.88 ± 0.051 kcal/mol.
In the case of “SAGGSAGGSAGMKKNEKLITELTFEGPDVYVKITIEKTFDPEGNKIYFKAKIEVFAPGELSAGGSAGGSAGG [r11_237_TrMRF]”, the “folding stability dG unfold” value [1] is reported as 2.83 ± 0.097 kcal/mol, the “folding stability dG unfold” value [2] is reported as 4.06 ± 0.075 kcal/mol and the “folding stability dG unfold” value [3] is reported as 3.67 ± 0.1 kcal/mol.
With “SAGGSAGGSAGMKKTVTTSTAPDGTLTTTTTVPTPDSTTTVVTTTTDPTTGTTTTTTTANSAGGSAGGSAGG [r11_107_JUSTAS]” the “folding stability dG unfold” value [1] was -2 ± 0.54 kcal/mol, the “folding stability dG unfold” value [2] was -0.317 ± 0.095 kcal/mol and the “folding stability dG unfold” value [3] was -0.711 ± 0.34 kcal/mol.
In the case of “SAGGSAGGSAGMKLTITVTFPDGTTPTFEVPPNSGDPAEVAAAIRAAHPDVVTITITPELSAGGSAGGSAGG [r11_311_JUSTAS]”, the “folding stability dG unfold” value [1] is reported as 0.683 ± 0.039 kcal/mol, the “folding stability dG unfold” value [2] is reported as 0.27 ± 0.063 kcal/mol and the “folding stability dG unfold” value [3] is reported as 0.448 ± 0.12 kcal/mol.
For “SAGGSAGGSAGMKTLKIASISTSTSPTNTTLTTVTITSEGVTTTVTFPPGTTLEEVLEQLSAGGSAGGSAGG [r11_1056_JUSTAS]”, the “folding stability dG unfold” value [1] was 0.53 ± 0.049 kcal/mol, the “folding stability dG unfold” value [2] was 0.678 ± 0.11 kcal/mol and the “folding stability dG unfold” value [3] was 0.685 ± 0.1 kcal/mol.
With “SAGGSAGGSAGMKTSVTTPVTLPDGTPAVVTKYDGEVEIIDTGDGTSKVVPLSEVPPKLLSAGGSAGGSAGG [r11_155_JUSTAS]” the “folding stability dG unfold” value [1] was 0.678 ± 0.035 kcal/mol, the “folding stability dG unfold” value [2] was 0.422 ± 0.076 kcal/mol and the “folding stability dG unfold” value [3] was 0.604 ± 0.07 kcal/mol.
For “SAGGSAGGSAGMKTTTLEVSTDPSGYTTTKTKIEIINENTPSISTSTVVTAVTPPAPPIASAGGSAGGSAGG [r11_830_JUSTAS]”, the “folding stability dG unfold” value [1] was 0.133 ± 0.017 kcal/mol, the “folding stability dG unfold” value [2] was 0.122 ± 0.11 kcal/mol and the “folding stability dG unfold” value [3] was 0.195 ± 0.057 kcal/mol.
With “SAGGSAGGSAGMKTTYDPDTNKLSITLPNGTVATYYLGTGVIEIPDEVSSKEDIKVEKAASAGGSAGGSAGG [r17_174_JUSTAS]” the “folding stability dG unfold” value [1] was 0.321 ± 0.11 kcal/mol, the “folding stability dG unfold” value [2] was 0.956 ± 0.17 kcal/mol and the “folding stability dG unfold” value [3] was 0.79 ± 0.15 kcal/mol.
For “SAGGSAGGSAGMKTVTVTVPPSAGVDAVREALAAQGMTVTSVSREGDTLTVTTEAPPELLSAGGSAGGSAGG [r11_672_JUSTAS]”, the “folding stability dG unfold” value [1] was -0.866 ± 0.14 kcal/mol, the “folding stability dG unfold” value [2] was 0.294 ± 0.08 kcal/mol and the “folding stability dG unfold” value [3] was 0.024 ± 0.13 kcal/mol.
For “SAGGSAGGSAGMKVTIEENEETGKFTIKVKTEDGEEKTIEIPKENLEEILAKLPPNVEIISAGGSAGGSAGG [r11_569_TrROS_Hall]”, the “folding stability dG unfold” value [1] was 2.52 ± 0.11 kcal/mol, the “folding stability dG unfold” value [2] was 1.92 ± 0.036 kcal/mol and the “folding stability dG unfold” value [3] was 2.14 ± 0.17 kcal/mol.
For “SAGGSAGGSAGMKVTVTITYPGGKVTTLDGDPEEVKAALPSSLTDVKITVTDPATGKVAASAGGSAGGSAGG [r11_353_JUSTAS]”, the “folding stability dG unfold” value [1] was -0.213 ± 0.06 kcal/mol, the “folding stability dG unfold” value [2] was 0.838 ± 0.032 kcal/mol and the “folding stability dG unfold” value [3] was 0.635 ± 0.12 kcal/mol.
With “SAGGSAGGSAGMKVVVELEVTFDSEEEAEAVAKAIAEELGSEDVVVKVIRKPVELGPGLKSAGGSAGGSAGG [r17_285_JUSTAS]” the “folding stability dG unfold” value [1] was 0.0891 ± 0.061 kcal/mol, the “folding stability dG unfold” value [2] was 0.891 ± 0.031 kcal/mol and the “folding stability dG unfold” value [3] was 0.656 ± 0.051 kcal/mol.
With “SAGGSAGGSAGMKVVVTLPDRTVTIPVNGTLDEAKEAVIKRAEELFGKPIPIEEITMSGESAGGSAGGSAGG [r11_1028_JUSTAS]” the “folding stability dG unfold” value [1] was 0.677 ± 0.03 kcal/mol, the “folding stability dG unfold” value [2] was -0.0243 ± 0.083 kcal/mol and the “folding stability dG unfold” value [3] was 0.408 ± 0.11 kcal/mol.
With “SAGGSAGGSAGMLIELTVETSVTTVSTPDATFTVVTLKEPGKPETLGTVVYDPATGSPALSAGGSAGGSAGG [r11_645_JUSTAS]” the “folding stability dG unfold” value [1] was 0.615 ± 0.036 kcal/mol, the “folding stability dG unfold” value [2] was -0.959 ± 0.39 kcal/mol and the “folding stability dG unfold” value [3] was 0.168 ± 0.14 kcal/mol.
In the case of “SAGGSAGGSAGMLKKSPSPSIITVKIKPPDSDEVKTINIPPDKPEEVEKLREKGLEIEVLSAGGSAGGSAGG [r11_1006_JUSTAS]”, the “folding stability dG unfold” value [1] is reported as -0.459 ± 0.35 kcal/mol, the “folding stability dG unfold” value [2] is reported as -0.178 ± 0.37 kcal/mol and the “folding stability dG unfold” value [3] is reported as -0.211 ± 0.26 kcal/mol.
With “SAGGSAGGSAGMMKVRIRVDGKEIEIEVPPGMTVDEIAERLKKEFGKDIEIEVEEVKPEPSAGGSAGGSAGG [r11_805_TrROS_Hall]” the “folding stability dG unfold” value [1] was 3.72 ± 0.23 kcal/mol, the “folding stability dG unfold” value [2] was 3.17 ± 0.1 kcal/mol and the “folding stability dG unfold” value [3] was 3.39 ± 0.22 kcal/mol.
For “SAGGSAGGSAGMPEVEVEVKIIKFDKEKNVFVIEVTDKKTGKRVTLTIKNGKIELKVEEPSAGGSAGGSAGG [r17_370_TrROS_Hall]”, the “folding stability dG unfold” value [1] was 2.85 ± 0.098 kcal/mol, the “folding stability dG unfold” value [2] was 4.06 ± 0.089 kcal/mol and the “folding stability dG unfold” value [3] was 3.7 ± 0.19 kcal/mol.
In the case of “SAGGSAGGSAGMPKRKITKIETEELPPELIRVTITLPDGTPVPVVVSPDDEEVKAIIEKLSAGGSAGGSAGG [r11_122_JUSTAS]”, the “folding stability dG unfold” value [1] is reported as -0.0513 ± 0.3 kcal/mol, the “folding stability dG unfold” value [2] is reported as 0.113 ± 0.13 kcal/mol and the “folding stability dG unfold” value [3] is reported as 0.311 ± 0.24 kcal/mol.
With “SAGGSAGGSAGMPLTVLGTEEIGDSTTVTTKDPTSDELYRKTYTNGAVSSTEIVPASELGSAGGSAGGSAGG [r11_19_JUSTAS]” the “folding stability dG unfold” value [1] was 0.0214 ± 0.053 kcal/mol, the “folding stability dG unfold” value [2] was 0.282 ± 0.07 kcal/mol and the “folding stability dG unfold” value [3] was 0.217 ± 0.072 kcal/mol.
With “SAGGSAGGSAGMPVKVVLVKWKGGGLEPEGGEEREVEIGPEELEKLVKEAEKEGYEVYPASAGGSAGGSAGG [r17_18_TrMRF]” the “folding stability dG unfold” value [1] was 0.165 ± 0.11 kcal/mol, the “folding stability dG unfold” value [2] was -0.126 ± 0.35 kcal/mol and the “folding stability dG unfold” value [3] was 0.0684 ± 0.36 kcal/mol.
With “SAGGSAGGSAGMRLVTITLTTEKPIFDENGNPIGTTTRTVVLEREVPEPEVPEVPLYQALSAGGSAGGSAGG [r11_131_JUSTAS]” the “folding stability dG unfold” value [1] was 0.304 ± 0.18 kcal/mol, the “folding stability dG unfold” value [2] was 0.189 ± 0.18 kcal/mol and the “folding stability dG unfold” value [3] was 0.261 ± 0.17 kcal/mol.
